Laboratory results taken from patent US9215869 (UNIVERSITY OF GEORGIA RESEARCH FOUNDATION, dated 2015).

Experiments:
[1] = biological target: Cry11Ba toxin, trypsin-activated (Bacillus thuringiensis jegathesan) (Bacillus thuringiensis jegathesan) (UniProt Q45730); assay: 125I-Cry11Ba binding to An. gambiae BBMV with 10 µM competitor peptide
[2] = biological target: Cry11Ba toxin, trypsin-activated (Bacillus thuringiensis jegathesan) (Bacillus thuringiensis jegathesan) (UniProt Q45730); assay: cell-based or functional assay
[3] = biological target: brush border membrane vesicles (BBMV) of Anopheles gambiae 4th instar larvae (Anopheles gambiae); assay: 125I-Cry11Ba binding to An. gambiae BBMV in the presence of 10 µM AgAPN2tb/Del3, against no peptide
[4] = biological target: brush border membrane vesicles (BBMV) of Anopheles gambiae 4th instar larvae (Anopheles gambiae); assay: 125I-Cry11Ba binding to An. gambiae BBMV in the presence of 10 µM AgAPN2tb/Del1, against no peptide
[5] = biological target: brush border membrane vesicles (BBMV) of Anopheles gambiae 4th instar larvae (Anopheles gambiae); assay: 125I-Cry11Ba binding to An. gambiae BBMV in the presence of 10 µM AgAPN2tb, against no peptide
[6] = biological target: brush border membrane vesicles (BBMV) of Anopheles gambiae 4th instar larvae (Anopheles gambiae); assay: 2.5 nM 125I-Cry11Ba on 8 µg An. gambiae BBMV, no competitor
[7] = biological target: T1, Cry11Ba toxin, trypsin-activated (Bacillus thuringiensis jegathesan) (Bacillus thuringiensis jegathesan, UniProt Q45730 29-647, 125I-labelled (chloramine-T) in the BBMV binding assays; unlabelled when coated on microtiter plates); assay: saturation ELISA, biotinylated peptide on plates coated with trypsinized Cry11Ba, one-site fit
T1 construct: also called trypsinized Cry11Ba; trypsinated Cry11Ba
T1 sequence (Q45730 29-647 limits assumed): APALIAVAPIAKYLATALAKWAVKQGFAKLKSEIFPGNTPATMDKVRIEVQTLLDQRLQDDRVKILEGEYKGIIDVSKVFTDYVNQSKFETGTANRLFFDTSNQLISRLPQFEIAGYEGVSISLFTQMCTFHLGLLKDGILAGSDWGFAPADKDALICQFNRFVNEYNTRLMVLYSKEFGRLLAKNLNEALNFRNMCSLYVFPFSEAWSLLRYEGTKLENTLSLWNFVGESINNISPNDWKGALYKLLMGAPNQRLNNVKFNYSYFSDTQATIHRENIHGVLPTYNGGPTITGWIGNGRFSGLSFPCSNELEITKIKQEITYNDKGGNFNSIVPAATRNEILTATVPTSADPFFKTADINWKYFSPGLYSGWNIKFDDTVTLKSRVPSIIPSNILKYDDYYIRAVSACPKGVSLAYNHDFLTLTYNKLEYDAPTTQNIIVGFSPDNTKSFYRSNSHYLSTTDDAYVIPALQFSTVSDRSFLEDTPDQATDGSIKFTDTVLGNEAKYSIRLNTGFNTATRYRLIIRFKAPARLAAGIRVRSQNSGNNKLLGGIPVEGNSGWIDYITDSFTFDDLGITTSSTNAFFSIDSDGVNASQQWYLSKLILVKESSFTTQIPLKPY

Chain of Cry11Ba toxin, trypsin-activated (Bacillus thuringiensis jegathesan) (Bacillus thuringiensis jegathesan) (Q45730 29-647 limits assumed): as above

AgAPN2ta/Del2 (AgAPN2ta with a middle 10-kDa segment deleted) (receptor)
toxin bound to BBMV in presence of the competitor [1]: 20.6 fmol
larval mortality with Cry11Ba plus peptide inclusion bodies (1:100), 24 h [2]: 8.8%

AgAPN2ta/Del3 (AgAPN2ta with the third 10-kDa segment deleted) (receptor)
toxin bound to BBMV in presence of the competitor [1]: 19.5 fmol
larval mortality with Cry11Ba plus peptide inclusion bodies (1:100), 24 h [2]: 5%

Cry11Ba toxin, trypsin-activated (Bacillus thuringiensis jegathesan) (from UniProt Q45730 29-647) (ligand)
percent increase of Cry11Ba binding to BBMV [3]: 45%
percent increase of Cry11Ba binding to BBMV [4]: 62%
percent increase of Cry11Ba binding to BBMV [5]: 24%
toxin bound [6]: 27.9 fmol

B1: AgAPN2ta, 30-kDa fragment of Anopheles gambiae aminopeptidase N AgAPN2 (residues 336-590 of SEQ ID NO:2) (receptor)
chain: STSMQQHRIAAVISHEIAHQWFGDLVTCEWWDVTWLNEGFARYYQYYGTALVETEWDLDHQFVVEQLQGVMQMDSLRSTHPMTHPVYTQAQTSGIFDNISYNKGAVMLRMMEHYLTTETFKTALRAYIKDRAFKTTRPEDLFNALNRYDPNARSYMEPWTVQPGYPLVTVTSHDTGFTITQKRFLVNEPDHNEQTAWPLPITFATKASEFSITRPAFYTGMTFEIPMQGASDVEYFILNNQQVGYYRVNYDAILW
modifications: biotinylated when used as probe
notes: Expressed in E. coli as inclusion bodies, solubilized in 8M urea, Ni-purified and dialyzed; An N-terminal Met from the NdeI site is implied by the primers; also called AgAPN2a; -2a; not shown: C-terminal vector-derived His tag (pET-30a(+), NdeI/XhoI; purified on Ni2+ column)
Kd [7]: 16.7 nM

B2: AgAPN2tb, 28-kDa fragment of Anopheles gambiae aminopeptidase N AgAPN2 (residues 591-843 of SEQ ID NO:2) (receptor)
chain: GKISKALHSEGFGGIHVLNRAQIVDDLFNLARGDVVPYGTALEILEYLKEETEYAPWLAAVNGLTTLSRRIHADDEKLFTAHILDIFSKAYDIVKFQAPTATERRIFTYMRQNVLQWACNYGHEECSKAAVAEFHRYHQNPSVKVHPDLRQVVYCEGIRKGSTEEFEFLWNQYLTTNVATEQILILQGLGCVSSSELITDMLNGIASPHVRSQDKNNAFTYVINNPYTLPHVSRYLQQNHANWAASHGSYTNV
modifications: biotinylated when used as probe
notes: Expressed in E. coli as inclusion bodies, solubilized in 8M urea, Ni-purified and dialyzed; An N-terminal Met from the NdeI site is implied by the primers; also called AgAPN2b; biotin-AgAPN2tb; not shown: C-terminal vector-derived His tag (pET-30a(+), NdeI/XhoI; purified on Ni2+ column)
Kd [7]: 26.4 nM
